Experimental data from the supplement of paper PMC7877785.
± gives the uncertainty stated by the source.

Experiment: self-splicing fitness, log relative to wild type (ln ratio); higher = more splicing; Tetrahymena group I intron in knt gene, E. coli kanamycin selection, DiMSum; sequences stand for … in CUCUCU…GGAGGGAAAAGUUAUCAGGCAUGCACCUGGUAGCUAGUCUUUAAACCAAUAGAUUGCAUCGGUUUAAAAGGCAAGACCGUCAAAUUGCGGGAAAGGGGUCAACAGCCGUUCAGUACCAAGUCUCAGGGGAAACUUUGAGAUGGCCUUGCAAAGGGUAUGGUAAUAAGCUGACGGACAUGGUCCUAACCACGCAGCCAAGUCCUAAGUCAACAGAUCUUCUGUUGAUAUGGAUGCAGUUCACAGACUAAAUGUCGGUCGGGGAAGAUGUAUUCUUCUCAUAAGAUAUAGUCGGACCUCUCCUUAAUGGGAGCUAGCGGAUGAAGUGAUGCAACACUGGAGCCGCUGGGAACUAAUUUGUAUGCGAAAGUAUAUUGAUUAGUUUUGGAGUACUCGUGGUCG
Summary of the method: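 Six replicate transformations of E. coli BL21(DE3) with a pET-22b(+) library were grown overnight at 37°C or 30°C. The library randomised all eight P1ex-region intron nucleotides, the intron lying in the knt kanamycin-resistance gene, and plates were LB agar with or without 25 μg/mL kanamycin plus 100 μg/mL carbenicillin, 50 μM IPTG and 0.2% rhamnose. Pooled colonies were amplicon-sequenced on an Illumina HiSeq 2500, and fitness is the DiMSum error-weighted combination of wild-type-normalised replicate fold changes, kanamycin versus none.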

Sequence	self-splicing fitness (ln) (30 °C)	self-splicing fitness (ln) (37 °C)
UGAAAGCAAUAUUACGACCC	-1.44 ± 0.31	
UGAAAGCAAUAUUACGACUC	-2.17 ± 0.2	-1.88 ± 0.25
UGAAAGCAAUAUUACGAGGA	-3.43 ± 0.24	-1.81 ± 0.15
UGAAAGCAAUAUUACGAGUC	-3.42 ± 0.28	-2.28 ± 0.26
UGAAAGCAAUAUUACGAUCA	-0.309 ± 0.084	-0.381 ± 0.1
UGAAAGCAAUAUUACGCAAC	-3.98 ± 0.29	-1.69 ± 0.19
UGAAAGCAAUAUUACGCCAU	-3.11 ± 0.3	-3.23 ± 0.33
UGAAAGCAAUAUUACGCCCA	-0.309 ± 0.11	0.296 ± 0.16
UGAAAGCAAUAUUACGCCUU	-0.914 ± 0.2	-2.01 ± 0.34
UGAAAGCAAUAUUACGCGCA	-0.0804 ± 0.12	0.142 ± 0.15
UGAAAGCAAUAUUACGGGGG	-2.07 ± 0.17	-2.89 ± 0.26
UGAAAGCAAUAUUACGGGGU	-3.55 ± 0.2	-2.48 ± 0.18
UGAAAGCAAUAUUACGGUAG	-0.656 ± 0.06	-0.113 ± 0.088
UGAAAGCAAUAUUACGGUAU	-2.53 ± 0.21	-0.827 ± 0.16
UGAAAGCAAUAUUACGGUGG	-1.22 ± 0.063	-1.44 ± 0.093
UGAAAGCAAUAUUACGUACG	-0.177 ± 0.11	0.639 ± 0.13
UGAAAGCAAUAUUACGUAGU	-3.96 ± 0.26	-2.16 ± 0.18
UGAAAGCAAUAUUACGUCAA	-0.68 ± 0.12	-1.31 ± 0.12
UGAAAGCAAUAUUACGUCAG	-1.78 ± 0.13	-0.368 ± 0.13
UGAAAGCAAUAUUACGUGUU	-3.21 ± 0.13	-1.44 ± 0.11
UGACAGCAAUAUUACGAAAG	-3.07 ± 0.25	-2.15 ± 0.2
UGACAGCAAUAUUACGAACA	-0.232 ± 0.081	-0.06 ± 0.087
UGACAGCAAUAUUACGACAU	-1.209 ± 0.012	-0.373 ± 0.032
UGACAGCAAUAUUACGAGAA		-2.33 ± 0.29
UGACAGCAAUAUUACGAUGU	-4.14 ± 0.17	-2.28 ± 0.14
UGACAGCAAUAUUACGAUUC	-3.35 ± 0.17	-2.09 ± 0.14

Sequence	self-splicing fitness (ln) (30 °C)	self-splicing fitness (ln) (37 °C)
UGACAGCAAUAUUACGCCAG	-1.56 ± 0.12	-0.793 ± 0.14
UGACAGCAAUAUUACGCGUA	-0.95 ± 0.094	-0.353 ± 0.089
UGACAGCAAUAUUACGCGUG	-0.925 ± 0.066	0.0478 ± 0.08
UGACAGCAAUAUUACGCUCG	-1.1 ± 0.11	-0.143 ± 0.14
UGACAGCAAUAUUACGCUUU	-3.43 ± 0.2	-2.54 ± 0.26
UGACAGCAAUAUUACGGAAC	-2.81 ± 0.24	-2.42 ± 0.24
UGACAGCAAUAUUACGGCGA	-0.625 ± 0.085	-0.382 ± 0.092
UGACAGCAAUAUUACGUAAU	-2.19 ± 0.099	-0.915 ± 0.15
UGACAGCAAUAUUACGUACC	-1.78 ± 0.12	-0.302 ± 0.14
UGACAGCAAUAUUACGUAGA	-2.29 ± 0.085	-1.14 ± 0.11
UGACAGCAAUAUUACGUAUC	-2.91 ± 0.097	-2.57 ± 0.13
UGACAGCAAUAUUACGUGUA	-1.58 ± 0.081	-0.841 ± 0.081
UGACAGCAAUAUUACGUUAC	-3.81 ± 0.35	-3.32 ± 0.31
UGACAGCAAUAUUACGUUCC	-1.55 ± 0.1	-0.947 ± 0.14
UGAGAGCAAUAUUACGAAAC		-1.1 ± 0.37
UGAGAGCAAUAUUACGACGG	-2.66 ± 0.2	-2.56 ± 0.25
UGAGAGCAAUAUUACGAGCG	-1.84 ± 0.24	-1.81 ± 0.31
UGAGAGCAAUAUUACGAUUA	-0.816 ± 0.19	-0.653 ± 0.3
UGAGAGCAAUAUUACGCACC	-1.54 ± 0.26	-1.15 ± 0.45
UGAGAGCAAUAUUACGCAUG	-1.65 ± 0.13	-2.09 ± 0.18
UGAGAGCAAUAUUACGCUAA	-2.28 ± 0.31	-2.53 ± 0.31
UGAGAGCAAUAUUACGCUUG	-2.26 ± 0.36	-1.55 ± 0.33
UGAGAGCAAUAUUACGCUUU	-4.15 ± 0.29	-1.96 ± 0.17
UGAGAGCAAUAUUACGGACG	-1.67 ± 0.28	-0.294 ± 0.41
UGAGAGCAAUAUUACGGAUC	-1.94 ± 0.25	-2.32 ± 0.49
UGAGAGCAAUAUUACGGCAU	-2.88 ± 0.23	-2.85 ± 0.33

Sequence	self-splicing fitness (ln) (30 °C)	self-splicing fitness (ln) (37 °C)
UGAGAGCAAUAUUACGGCCA	-1.63 ± 0.25	
UGAGAGCAAUAUUACGGGAU		-1.77 ± 0.37
UGAGAGCAAUAUUACGGGGA	-3.16 ± 0.43	-2.77 ± 0.27
UGAGAGCAAUAUUACGUAGA	-2.94 ± 0.33	-1.28 ± 0.35
UGAGAGCAAUAUUACGUAUU	-3.22 ± 0.34	-1 ± 0.21
UGAGAGCAAUAUUACGUCUC	-1.78 ± 0.38	
UGAGAGCAAUAUUACGUGGG	-2.83 ± 0.29	-1.38 ± 0.2
UGAGAGCAAUAUUACGUUAA		-2.46 ± 0.3
UGAUAGCAAUAUUACGACAG	-1.41 ± 0.11	-1.59 ± 0.1
UGAUAGCAAUAUUACGACAU	-2.587 ± 0.02	-1.26 ± 0.035
UGAUAGCAAUAUUACGACCA	-2.04 ± 0.23	-0.327 ± 0.37
UGAUAGCAAUAUUACGAGCG	-0.553 ± 0.11	0.433 ± 0.15
UGAUAGCAAUAUUACGAGGA	-3.09 ± 0.3	-2.82 ± 0.48
UGAUAGCAAUAUUACGAGGG		-2.38 ± 0.4
UGAUAGCAAUAUUACGCAGU	-2.93 ± 0.44	-2.51 ± 0.27
UGAUAGCAAUAUUACGCCCC	-2.85 ± 0.43	-0.875 ± 0.38
UGAUAGCAAUAUUACGCCCU	-0.0785 ± 0.15	0.0233 ± 0.21
UGAUAGCAAUAUUACGCGAC	-3.55 ± 0.28	
UGAUAGCAAUAUUACGCUAG	-1.09 ± 0.081	-0.588 ± 0.078
UGAUAGCAAUAUUACGCUCU	-1.41 ± 0.11	0.193 ± 0.15
UGAUAGCAAUAUUACGGGCA	-0.911 ± 0.075	0.244 ± 0.12
UGAUAGCAAUAUUACGGGCG	-0.568 ± 0.099	0.157 ± 0.1
UGAUAGCAAUAUUACGGGGU	-2.68 ± 0.21	-2.35 ± 0.28
UGAUAGCAAUAUUACGUCAC	-4.14 ± 0.22	-2.81 ± 0.22
UGAUAGCAAUAUUACGUCAU	-3.03 ± 0.27	-2.16 ± 0.2
UGAUAGCAAUAUUACGUGAA	-3 ± 0.17	-1.7 ± 0.16
